# Assay results taken from patent publication US20120094909A1 (Bristol-Myers Squibb, published 2012).
# B1: SABA1.2 (designed binder)
# chain: MGVSDVPRDLEVVAATPTSLLISWHSYYEQNSYYRITYGETGGNSPVQEFTVPYSQTTATISGLKPGVDYTITVYAVYGSKYYYPISINYRTEIEDEDEDEDED
# notes: It has no His tag; also called "core 1" 10Fn3 comprising an (ED)5 extension
# Key:
# rhesus serum albumin [1] = biological target: T1, rhesus serum albumin (rhesus, UniProt Q28522 17-600); experiment: kinetic binding analysis in MES buffer, pH 5.5
# T1 construct: also called RhSA
# T1 sequence (Q28522 17-600 limits assumed): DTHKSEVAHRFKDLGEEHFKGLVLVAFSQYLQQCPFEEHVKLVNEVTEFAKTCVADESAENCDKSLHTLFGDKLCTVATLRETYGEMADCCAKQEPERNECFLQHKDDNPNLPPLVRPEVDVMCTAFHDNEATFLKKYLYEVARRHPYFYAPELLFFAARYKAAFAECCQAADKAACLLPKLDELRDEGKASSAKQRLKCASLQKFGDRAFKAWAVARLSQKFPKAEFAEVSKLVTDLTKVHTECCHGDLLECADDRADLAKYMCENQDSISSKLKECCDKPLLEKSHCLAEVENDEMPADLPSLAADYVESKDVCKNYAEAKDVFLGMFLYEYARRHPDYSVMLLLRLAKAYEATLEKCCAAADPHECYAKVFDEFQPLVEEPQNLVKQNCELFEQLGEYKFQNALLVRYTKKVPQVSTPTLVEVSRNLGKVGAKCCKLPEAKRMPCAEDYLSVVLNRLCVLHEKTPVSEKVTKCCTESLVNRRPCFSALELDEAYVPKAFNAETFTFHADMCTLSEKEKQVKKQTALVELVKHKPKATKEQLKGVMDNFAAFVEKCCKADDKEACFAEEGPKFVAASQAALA
# human serum albumin [2] = biological target: T2, human serum albumin (human, UniProt P02768 25-609); experiment: kinetic binding analysis in MES buffer, pH 5.5
# T2 construct: also called HSA
# T2 sequence (P02768 25-609 limits assumed): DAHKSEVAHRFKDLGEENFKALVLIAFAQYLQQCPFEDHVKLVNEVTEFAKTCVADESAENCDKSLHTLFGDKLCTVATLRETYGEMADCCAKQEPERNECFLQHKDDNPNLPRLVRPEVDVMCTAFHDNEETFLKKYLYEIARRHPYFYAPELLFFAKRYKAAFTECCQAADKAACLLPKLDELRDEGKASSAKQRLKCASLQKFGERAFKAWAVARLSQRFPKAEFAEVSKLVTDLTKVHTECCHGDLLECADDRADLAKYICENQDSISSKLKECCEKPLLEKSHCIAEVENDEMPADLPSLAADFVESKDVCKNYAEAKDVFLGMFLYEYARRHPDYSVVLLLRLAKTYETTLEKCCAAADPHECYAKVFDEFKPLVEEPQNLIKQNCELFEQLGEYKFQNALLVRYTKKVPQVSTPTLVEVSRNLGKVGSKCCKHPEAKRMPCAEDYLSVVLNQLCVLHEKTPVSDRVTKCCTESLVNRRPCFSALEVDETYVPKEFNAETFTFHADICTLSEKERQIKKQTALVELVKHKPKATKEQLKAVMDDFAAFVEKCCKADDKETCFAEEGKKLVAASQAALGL
# rhesus serum albumin [3] = biological target: T1, rhesus serum albumin; experiment: kinetic binding analysis in HBS-P buffer, 37 °C
# human serum albumin [4] = biological target: T2, human serum albumin; experiment: kinetic binding analysis in HBS-P buffer, 37 °C
# rhesus serum albumin [5] = biological target: T1, rhesus serum albumin; experiment: kinetic binding analysis in MES buffer, pH 7.4
# human serum albumin [6] = biological target: T2, human serum albumin; experiment: kinetic binding analysis in MES buffer, pH 7.4
# rhesus serum albumin [7] = biological target: T1, rhesus serum albumin; experiment: kinetic binding analysis in HBS-P buffer, 25 °C
# human serum albumin [8] = biological target: T2, human serum albumin; experiment: kinetic binding analysis in HBS-P buffer, 25 °C
# murine serum albumin = biological target: T3, murine serum albumin (mouse, UniProt P07724 25-608); experiment: kinetic binding analysis in HBS-P buffer, 25 °C
# T3 construct: also called MuSA; Mouse
binder,measurement,setting,value
B1,Kd,rhesus serum albumin [1],359 nM
same,koff,rhesus serum albumin [1],0.00272 s⁻¹
same,kon,rhesus serum albumin [1],7570 M⁻¹ s⁻¹
same,Kd,human serum albumin [2],28.6 nM
same,koff,human serum albumin [2],0.00027 s⁻¹
same,kon,human serum albumin [2],9440 M⁻¹ s⁻¹
same,Kd,rhesus serum albumin [3],977 nM
same,koff,rhesus serum albumin [3],0.0185 s⁻¹
same,kon,rhesus serum albumin [3],18900 M⁻¹ s⁻¹
same,Kd,human serum albumin [4],24.1 nM
same,koff,human serum albumin [4],0.000815 s⁻¹
same,kon,human serum albumin [4],33800 M⁻¹ s⁻¹
same,Kd,rhesus serum albumin [5],479 nM
same,koff,rhesus serum albumin [5],0.00295 s⁻¹
same,kon,rhesus serum albumin [5],6160 M⁻¹ s⁻¹
same,Kd,human serum albumin [6],41.9 nM
same,koff,human serum albumin [6],0.000388 s⁻¹
same,kon,human serum albumin [6],9260 M⁻¹ s⁻¹
same,Kd,rhesus serum albumin [7],580 nM
same,koff,rhesus serum albumin [7],0.00378 s⁻¹
same,kon,rhesus serum albumin [7],6600 M⁻¹ s⁻¹
same,Kd,human serum albumin [8],55.3 nM
same,koff,human serum albumin [8],0.000443 s⁻¹
same,kon,human serum albumin [8],8210 M⁻¹ s⁻¹
same,binding result,murine serum albumin,no binding (tested: up to 1 µM)
